B1: UGDH T325D, obligate dimer mutant (enzyme, human)
chain: MFEIKKICCIGAGYVGGPTCSVIAHMCPEIRVTVVDVNESRINAWNSPTLPIYEPGLKEVVESCRGKNLFFSTNIDDAIKEADLVFISVNTPTKTYGMGKGRAADLKYIEACARRIVQNSNGYKIVTEKSTVPVRAAESIRRIFDANTKPNLNLQVLSNPEFLAEGTAIKDLKNPDRVLIGGDETPEGQRAVQALCAVYEHWVPREKILTTNTWSSELSKLAANAFLAQRISSINSISALCEATGADVEEVATAIGMDQRIGNKFLKASVGFGGSCFQKDVLNLVYLCEALNLPEVARYWQQVIDMNDYQRRRFASRIIDSLFNDVTDKKIAILGFAFKKDTGDTRESSSIYISKYLMDEGAHLHIYDPKVPREQIVVDLSHPGVSEDDQVSRLVTISKDPYEACDGAHAVVICTEWDMFKELDYERIHKKMLKPAFIFDGRRVLDGLHNELQTIGFQIETIGKKV
notes: UDP-glucose 6-dehydrogenase, human, with T325D; also called UGDH T325D dimeric mutant
B2: UDP-glucose 6-dehydrogenase (UGDH), human, wild type, recombinant (enzyme, UniProt O60701 1-494, looked up)
chain: MFEIKKICCIGAGYVGGPTCSVIAHMCPEIRVTVVDVNESRINAWNSPTLPIYEPGLKEVVESCRGKNLFFSTNIDDAIKEADLVFISVNTPTKTYGMGKGRAADLKYIEACARRIVQNSNGYKIVTEKSTVPVRAAESIRRIFDANTKPNLNLQVLSNPEFLAEGTAIKDLKNPDRVLIGGDETPEGQRAVQALCAVYEHWVPREKILTTNTWSSELSKLAANAFLAQRISSINSISALCEATGADVEEVATAIGMDQRIGNKFLKASVGFGGSCFQKDVLNLVYLCEALNLPEVARYWQQVIDMNDYQRRRFASRIIDSLFNTVTDKKIAILGFAFKKDTGDTRESSSIYISKYLMDEGAHLHIYDPKVPREQIVVDLSHPGVSEDDQVSRLVTISKDPYEACDGAHAVVICTEWDMFKELDYERIHKKMLKPAFIFDGRRVLDGLHNELQTIGFQIETIGKKVSSKRIPYAPSGEIPKFSLQDPPNKKPKV
notes: UDP-glucose 6-dehydrogenase, human; In solution a mix of hexamer (trimer of dimers) and dimer; also called UGDH WT; WT UGDH
B3: UGDH S316A, phosphodeficient point mutant, recombinant (enzyme, human, UniProt O60701 1-494, looked up)
chain: B2 chain with S316A
notes: UDP-glucose 6-dehydrogenase, human
B4: UGDH S316D, phosphomimetic point mutant, recombinant (enzyme, human, UniProt O60701 1-494, looked up)
chain: B2 chain with S316D
notes: as for B3
B5: UGDH Δ132, hexameric mutant (enzyme, human)
chain: MFEIKKICCIGAGYVGGPTCSVIAHMCPEIRVTVVDVNESRINAWNSPTLPIYEPGLKEVVESCRGKNLFFSTNIDDAIKEADLVFISVNTPTKTYGMGKGRAADLKYIEACARRIVQNSNGYKIVTEKSTPVRAAESIRRIFDANTKPNLNLQVLSNPEFLAEGTAIKDLKNPDRVLIGGDETPEGQRAVQALCAVYEHWVPREKILTTNTWSSELSKLAANAFLAQRISSINSISALCEATGADVEEVATAIGMDQRIGNKFLKASVGFGGSCFQKDVLNLVYLCEALNLPEVARYWQQVIDMNDYQRRRFASRIIDSLFNTVTDKKIAILGFAFKKDTGDTRESSSIYISKYLMDEGAHLHIYDPKVPREQIVVDLSHPGVSEDDQVSRLVTISKDPYEACDGAHAVVICTEWDMFKELDYERIHKKMLKPAFIFDGRRVLDGLHNELQTIGFQIETIGKKV
notes: construct of earlier work; Named only once, as a control of the gel filtration

The source of these data is paper PMC13330650, “Phosphorylation of UDP-glucose dehydrogenase increases glycosaminoglycan biosynthesis and promotes tumor cell motility, spheroid growth, and therapeutic resistance” (Matrix biology : journal of the International Society for …, 2025).

Numbering of substitutions follows the chain as printed. Names and notes keep the numbering of the source. Values joined by “and” are separate entries in the source; they are usually repeats but may differ in a detail not shown here. Equal values may be shown once.

One data set concerns the molecule itself. As to the kind of experiment: SEC; gel filtration chromatography of the purified enzyme, before addition of substrate and cofactor; hexamer and dimer peaks. (In general: In gel filtration, larger molecules generally elute earlier.)
The term stoichiometry N denotes a count of units in the complex or per binding partner. In the case of B1, the “stoichiometry N” value stood at 2.
Turning to B2, the “stoichiometry N” value was 6 and 2.
In the case of B3, the “stoichiometry N” value turned out to be 2.
Still for that read-out and setting: under B4 stands 2; under B5, 6.

A further data set concerns the molecule itself. As to the kind of experiment: SEC; gel filtration chromatography of the purified enzyme with substrate and cofactor added (holocomplex).
As to B3, the “stoichiometry N” value stood at 6.
Same read-out and setting: next, B4: 6.
